Values of other authors in paper PMC2751630.

Tests used:
PKA RI (Homo sapiens) = PKA RI (Homo sapiens) (UniProt P10644)
PKA RIIβ (Homo sapiens) = PKA RIIβ (Homo sapiens) (UniProt P31323)
PKA RIIα (Homo sapiens) = PKA RIIα (Homo sapiens) (UniProt P13861)
Sequence of PKA RIIα (Homo sapiens) (P13861 2-404): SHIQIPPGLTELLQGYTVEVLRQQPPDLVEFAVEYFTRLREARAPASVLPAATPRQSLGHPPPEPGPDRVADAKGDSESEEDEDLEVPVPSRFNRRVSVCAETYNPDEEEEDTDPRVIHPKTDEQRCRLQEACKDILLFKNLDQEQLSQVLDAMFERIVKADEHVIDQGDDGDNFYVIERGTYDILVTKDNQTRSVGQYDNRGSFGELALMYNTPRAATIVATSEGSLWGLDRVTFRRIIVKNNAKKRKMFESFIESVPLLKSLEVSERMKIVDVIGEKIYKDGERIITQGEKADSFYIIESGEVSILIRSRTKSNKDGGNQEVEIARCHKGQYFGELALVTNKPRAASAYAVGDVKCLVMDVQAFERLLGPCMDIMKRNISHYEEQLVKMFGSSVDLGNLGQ

Sequence of AKAP79 (P24588 whole entry): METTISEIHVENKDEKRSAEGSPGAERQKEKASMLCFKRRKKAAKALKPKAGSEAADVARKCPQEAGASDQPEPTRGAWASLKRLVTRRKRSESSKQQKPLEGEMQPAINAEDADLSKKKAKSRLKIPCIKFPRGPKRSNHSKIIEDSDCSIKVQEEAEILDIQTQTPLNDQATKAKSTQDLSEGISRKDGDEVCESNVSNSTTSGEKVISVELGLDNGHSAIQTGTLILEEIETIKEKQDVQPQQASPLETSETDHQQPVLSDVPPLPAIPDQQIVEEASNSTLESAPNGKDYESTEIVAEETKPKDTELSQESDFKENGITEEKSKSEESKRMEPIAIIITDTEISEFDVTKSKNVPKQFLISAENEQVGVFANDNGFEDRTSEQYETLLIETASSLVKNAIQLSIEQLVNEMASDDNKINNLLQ
Sequence of PKA RI (Homo sapiens) (P10644 whole entry): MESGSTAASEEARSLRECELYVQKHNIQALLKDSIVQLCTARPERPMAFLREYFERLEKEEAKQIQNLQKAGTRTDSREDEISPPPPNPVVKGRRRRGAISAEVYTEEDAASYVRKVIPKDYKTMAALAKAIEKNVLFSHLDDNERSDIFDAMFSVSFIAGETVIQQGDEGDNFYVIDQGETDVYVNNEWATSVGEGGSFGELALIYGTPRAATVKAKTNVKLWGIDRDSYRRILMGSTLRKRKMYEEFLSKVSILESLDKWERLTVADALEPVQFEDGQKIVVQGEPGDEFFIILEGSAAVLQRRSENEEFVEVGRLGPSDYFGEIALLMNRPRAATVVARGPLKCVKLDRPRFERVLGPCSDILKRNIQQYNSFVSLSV
Sequence of PKA RIIβ (Homo sapiens) (P31323 whole entry): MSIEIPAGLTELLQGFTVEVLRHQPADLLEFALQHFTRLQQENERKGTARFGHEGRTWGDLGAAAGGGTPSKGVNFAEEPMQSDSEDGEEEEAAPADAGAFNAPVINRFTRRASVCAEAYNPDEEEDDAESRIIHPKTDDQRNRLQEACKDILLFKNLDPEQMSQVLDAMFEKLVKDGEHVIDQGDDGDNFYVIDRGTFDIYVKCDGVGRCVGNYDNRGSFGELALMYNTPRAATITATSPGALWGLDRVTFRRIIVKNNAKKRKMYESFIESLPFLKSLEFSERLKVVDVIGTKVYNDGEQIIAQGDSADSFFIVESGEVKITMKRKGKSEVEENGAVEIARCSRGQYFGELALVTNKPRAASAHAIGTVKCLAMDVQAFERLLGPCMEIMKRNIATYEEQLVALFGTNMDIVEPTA

AKAP79 (from UniProt P24588)
Kd (PKA RI (Homo sapiens)): > 1000 nM
Kd (PKA RIIβ (Homo sapiens)): 4.5 nM
Kd (PKA RIIα (Homo sapiens)): 1.5 nM
